Where two headings read alike, the source gives them in different places. Blank lines part the entries; values can stand above or below the binder they belong to.
What was measured:
[1] = target: T1, Human IL-2Rβ/γ (intermediate affinity IL-2 receptor) (human, UniProt P14784 27-551; P31785 23-369); assay: FACS, HH cells
T1 construct: whole, on cells; also called IL-2Rβ/γc; IL-2Rβ (CD122) and γ (CD132)
T1 sequence (looked up) 1: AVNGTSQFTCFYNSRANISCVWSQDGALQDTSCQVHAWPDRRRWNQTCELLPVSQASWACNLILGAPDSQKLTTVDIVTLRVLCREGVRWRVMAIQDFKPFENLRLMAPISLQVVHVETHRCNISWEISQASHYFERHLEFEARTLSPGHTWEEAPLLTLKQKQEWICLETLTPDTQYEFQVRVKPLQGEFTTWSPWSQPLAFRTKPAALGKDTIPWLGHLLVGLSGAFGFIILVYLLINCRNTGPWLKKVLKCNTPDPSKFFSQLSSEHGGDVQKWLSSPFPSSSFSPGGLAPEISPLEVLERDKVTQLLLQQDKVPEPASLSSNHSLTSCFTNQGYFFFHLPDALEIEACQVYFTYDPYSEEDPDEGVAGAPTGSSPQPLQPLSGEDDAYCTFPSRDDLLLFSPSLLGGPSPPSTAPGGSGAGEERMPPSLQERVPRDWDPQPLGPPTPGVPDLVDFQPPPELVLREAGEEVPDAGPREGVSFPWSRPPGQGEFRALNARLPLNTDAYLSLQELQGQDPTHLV
T1 sequence (looked up) 2: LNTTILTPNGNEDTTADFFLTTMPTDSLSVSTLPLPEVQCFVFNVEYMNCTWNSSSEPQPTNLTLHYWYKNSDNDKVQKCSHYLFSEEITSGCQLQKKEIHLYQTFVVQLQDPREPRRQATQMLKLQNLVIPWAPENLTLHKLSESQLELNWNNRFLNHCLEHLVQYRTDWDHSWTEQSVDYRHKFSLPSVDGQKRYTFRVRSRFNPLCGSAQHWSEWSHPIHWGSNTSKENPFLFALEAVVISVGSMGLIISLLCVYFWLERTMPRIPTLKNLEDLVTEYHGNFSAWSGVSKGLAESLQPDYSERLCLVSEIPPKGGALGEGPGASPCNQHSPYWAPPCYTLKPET
Protocol: (§1) Human cutaneous T cell lymphoma HH cells, malignant non-Hodgkin's lymphoma NK92 cells and cutaneous T cell lymphoma MJ20 cells were used for binding assay. They both constitutively express IL-2Rβ (CD122) and […] (CD132), and NK92 and MJ20 also expresses IL-2Rα (CD25). HH, NK92 and MJ20 cells were cultured following ATCC guidance, then transferred to a 96-plate for binding analysis. Cells were incubated with IL-2/Fc fusion proteins at the indicated concentrations for 30 min at 4° C. to avoid internalization. Binding was detected by 2nd antibody of PE-anti-human Fc at 4° C. for another 30 min. The median fluorescence intensity (MFI) on HH and NK92 cells was measured using FACS.

[2] = target: T1, Human IL-2Rβ/γ (intermediate affinity …); assay: FACS, HH cells; EC50 fold vs T2U0.E44-1
Protocol: as §1

[3] = target: T1, Human IL-2Rβ/γ (intermediate affinity …); assay: FACS, HH cells; EC50 fold vs T2U0.E44-1; remark: listed apart in the source
How it was run: (§2)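 Surface binding of IL-2/Fc fusion proteins at 4° C. (30 min, no internalization) on lymphoma lines HH (CD122/CD132 only), NK92 and MJ20 (plus CD25); secondary PE-anti-human Fc; MFI by FACS.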

[4] = target: T1, Human IL-2Rβ/γ (intermediate affinity …); assay: cell-based or functional assay
[5] = target: T2, Human IL-2Rα/β/γ complex (high affinity IL-2 receptor) (human, UniProt P01589 22-272; P14784 27-551; P31785 23-369); assay: cell-based or functional assay
T2 sequence (looked up) 1: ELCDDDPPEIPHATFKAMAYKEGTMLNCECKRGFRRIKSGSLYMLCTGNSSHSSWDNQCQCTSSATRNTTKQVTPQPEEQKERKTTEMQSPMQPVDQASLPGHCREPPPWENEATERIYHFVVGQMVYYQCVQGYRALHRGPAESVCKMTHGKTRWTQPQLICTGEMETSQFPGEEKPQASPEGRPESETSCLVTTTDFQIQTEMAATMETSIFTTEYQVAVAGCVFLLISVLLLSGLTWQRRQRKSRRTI
T2 sequence (looked up) 2: T1 sequence (looked up) 1
T2 sequence (looked up) 3: T1 sequence (looked up) 2

[6] = target: T1, Human IL-2Rβ/γ (intermediate affinity …); assay: cell-based or functional assay; remark: listed apart in the source
[7] = target: T2, Human IL-2Rα/β/γ complex (high affinity …); assay: cell-based or functional assay; remark: listed apart in the source
[8] = target: T2, Human IL-2Rα/β/γ complex (high affinity …); assay: FACS, NK92 cells; EC50 fold vs T2U0.E44-1
How it was run: as §2

[9] = target: T1, Human IL-2Rβ/γ (intermediate affinity …); assay: FACS, HH cells; remark: listed apart in the source
How it was run: as §2

[10] = target: T2, Human IL-2Rα/β/γ complex (high affinity …); assay: FACS, NK92 cells
How it was run: as §2

[11] = target: T3, W3XX115-T2U0.E44-6.uIgG4V322 (human, UniProt P60568 21-149); assay: SPR Biacore 8K; variant captured via anti-human Fc, IL-2Rα ECD-His injected; steady state
T3 construct: IL-2 del STLT; E44 format, IgG4 FALA; IL-2 part tied by the design 'Del STLT'; not shown: IgG4 hinge-Fc with FALA (uIgG4V322), no linker
Protocol: IL-2 variants binding affinity to IL-2 receptor were detected by SPR using Biacore 8K. For IL-2Rα binding assay, each variant was captured on anti-human Fc immobilized CM5 sensor chip (cytiva). W3XX115-hPro1.ECD.His at different concentrations were injected over the sensor chip at a flow rate of 30 uL/min for an association phase of 60 s, followed by 90 s dissociation. The chip was then regenerated by 10 mM Glycine-HCl pH1.5 after each binding cycle. For IL-2Rγ binding assay, IL-2 variants were mixed with W369-hPro2.ECD.His as 1:1 before assay, were detected by SPR using Biacore 8K. W3XX115-hPro1.ECD.His was captured on anti-His immobilized CM5 sensor chip (cytiva). The mixture were injected over the sensor chip as described above. The sensorgrams of blank surface and buffer channel were subtracted from the test sensorgrams. The experimental data was fitted by steady state affinity model. Molecular weight of W3XX115-hPro1.ECD.His or W369-hPro1.ECD.His was used to calculate the molar concentration of analyte.
For T3U0.E44-1 and T2U0.E44-33, no binding to IL-2Rα was detected.

[12] = target: T3, W3XX115-T2U0.E44-6.uIgG4V322; assay: SPR Biacore 8K; set-up for IL-2Rβ not described
[13] = target: T3, W3XX115-T2U0.E44-6.uIgG4V322; assay: SPR (Biacore 8K): variant pre-mixed 1:1 with human IL-2Rβ ECD (W369-hPro2.ECD.His), injected over immobilised human IL-2Rγc [panel 2 of the upper row]

EC50 [1]: 24.5 nM
Affinity reduction [2]: 1 fold
Affinity reduction [3]: 1 fold
Potency in human CD8+ T EC50 [4]: 7.53 nM
Potency reduction (CD8+ T) [4]: 0.74 fold
Potency in human Treg EC50 [5]: 2.48 nM
Potency reduction (Treg) [5]: 652 fold
Human CD8+ T Potency EC50 (STAT5 phosphorylation) [6]: 7.14 nM
Human CD8+ T Potency reduction [6]: 0.69 fold
Human Treg Potency EC50 (STAT5 phosphorylation) [7]: 3.52 nM
Human Treg Potency reduction [7]: 296 fold
Affinity reduction [8]: 20.7 fold
EC50 [9]: 72.9 nM
EC50 [10]: 145 nM
B1: W3XX115-T3U0.E44-1.uIgG4V1 (Fc fusion)
chain: APTSSSTKKTQLQLEHLLLDLQMILNGINNYKNPKLTRMLTAKFAMPKKATELKHLQCLEEELKPLEEVLNGAQSKNFHLRPRDLISNINVIVLELKGSETTFMCEYADETATIVEFLNRWITFCQSIISTLTESKYGPPCPPCPAPEFLGGPSVFLFPPKPKDTLMISRTPEVTCVVVDVSQEDPEVQFNWYVDGVEVHNAKTKPREEQFNSTYRVVSVLTVLHQDWLNGKEYKCKVSNKGLPSSIEKTISKAKGQPREPQVYTLPPCQEEMTKNQVSLWCLVKGFYPSDIAVEWESNGQPENNYKTTPPVLDSDGSFFLYSRLTVDKSRWQEGNVFSCSVMHEALHNHYTQKSLSLSLG
heavy: EIQLQQSGPELVKPGASVKVSCKASGYSFTDYNMYWVKQSHGESLEWIGYIDPYNGGTRYNQKFKGKATLTVDKSSSTAFMHLNSLTSEDSAVYYCARNGHWDGAWFAYWGQGTLVTVSAASTKGPSVFPLAPCSRSTSESTAALGCLVKDYFPEPVTVSWNSGALTSGVHTFPAVLQSSGLYSLSSVVTVPSSSLGTKTYTCNVDHKPSNTKVDKRVESKYGPPCPPCPAPEFLGGPSVFLFPPKPKDTLMISRTPEVTCVVVDVSQEDPEVQFNWYVDGVEVHNAKTKPREEQFNSTYRVVSVLTVLHQDWLNGKEYKCKVSNKGLPSSIEKTISKAKGQPREPQVCTLPPSQEEMTKNQVSLSCAVKGFYPSDIAVEWESNGQPENNYKTTPPVLDSDGSFFLVSRLTVDKSRWQEGNVFSCSVMHEALHNHYTQKSLSLSLG
light: DIQMNQSPSSLSASLGDTITITCHASQNINVWLSWYQQKPGNIPKLLIYKASNLHTGVPSRFSGSRSGTGFTLTISSLQPEDIATYYCHQGQSYPFTFGSGTKLEIKRTVAAPSVFIFPPSDEQLKSGTASVVCLLNNFYPREAKVQWKVDNALQSGNSQESVTEQDSKDSTYSLSSTLTLSKADYEKHKVYACEVTHQGLSSPVTKSFNRGEC
notes: E44 format, IgG4

Kd [11]: 98.2 nM
B2: W3XX115-hPro1.ECD.His, IL2Rα ECD (receptor)
chain: ELCDDDPPEIPHATFKAMAYKEGTMLNCECKRGFRRIKSGSLYMLCTGNSSHSSWDNQCQCTSSATRNTTKQVTPQPEEQKERKTTEMQSPMQPVDQASLPGHCREPPPWENEATERIYHFVVGQMVYYQCVQGYRALHRGPAESVCKMTHGKTRWTQPQLICTGEMETSQFPGEEKPQASPEGRPESETSCHHHHHH
notes: Entry includes the C-terminal 6xHis tag; also called CD25

Kd [12]: 1010 nM
B3: W369-hPro2.ECD.His, IL2Rβ ECD (receptor)
chain: AVNGTSQFTCFYNSRANISCVWSQDGALQDTSCQVHAWPDRRRWNQTCELLPVSQASWACNLILGAPDSQKLTTVDIVTLRVLCREGVRWRVMAIQDFKPFENLRLMAPISLQVVHVETHRCNISWEISQASHYFERHLEFEARTLSPGHTWEEAPLLTLKQKQEWICLETLTPDTQYEFQVRVKPLQGEFTTWSPWSQPLAFRTKPAALGKDLEGGGGSGGGGHHHHHH
notes: Entry includes linker and C-terminal 6xHis tag; also called CD122

binding result [13]: binds
B4: W369-hPro1.ECD.His, IL-2Rγ ECD (receptor)
chain: LNTTILTPNGNEDTTADFFLTTMPTDSLSVSTLPLPEVQCFVFNVEYMNCTWNSSSEPQPTNLTLHYWYKNSDNDKVQKCSHYLFSEEITSGCQLQKKEIHLYQTFVVQLQDPREPRRQATQMLKLQNLVIPWAPENLTLHKLSESQLELNWNNRFLNHCLEHLVQYRTDWDHSWTEQSVDYRHKFSLPSVDGQKRYTFRVRSRFNPLCGSAQHWSEWSHPIHWGSNTSKENLEGGGGSGGGGHHHHHH
notes: Entry includes linker and C-terminal 6xHis tag; also called IL-2Rγc; CD132

— US20250000946A1 (WUXI BIOLOGICS IRELAND, published 2025)
